Values quoted from earlier work as cited in publication PMC8746970, “Determination of the Peptide AWRK6 in Rat Plasma by Liquid Chromatography-Tandem Mass Spectrometry (LC-MS/MS) and Its Application to Pharmacokinetics” (Molecules, 2021).

Details: in vivo; cited from earlier work

**Q.** With glucagon-like peptide-1 [GLP-1] as the substance, how does the elimination half-life read?
**A.** Its elimination half-life is ~ 2 min.
